Test results published in PMC11601812, “Structural proteomics defines a sequential priming mechanism for the progesterone receptor” (Research Square, 2024).

B1: progesterone receptor isoform A (PR-A), full-length, Strep II tagged (receptor, human, UniProt P06401-2 1-769, looked up)
chain: MSRSGCKVGDSSGTAAAHKVLPRGLSPARQLLLPASESPHWSGAPVKPSPQAAAVEVEEEDGSESEESAGPLLKGKPRALGGAAAGGGAAAVPPGAAAGGVALVPKEDSRFSAPRVALVEQDAPMAPGRSPLATTVMDFIHVPILPLNHALLAARTRQLLEDESYDGGAGAASAFAPPRSSPCASSTPVAVGDFPDCAYPPDAEPKDDAYPLYSDFQPPALKIKEEEEGAEASARSPRSYLVAGANPAAFPDFPLGPPPPLPPRATPSRPGEAAVTAAPASASVSSASSSGSTLECILYKAEGAPPQQGPFAPPPCKAPGASGCLLPRDGLPSTSASAAAAGAAPALYPALGLNGLPQLGYQAAVLKEGLPQVYPPYLNYLRPDSEASQSPQYSFESLPQKICLICGDEASGCHYGVLTCGSCKVFFKRAMEGQHNYLCAGRNDCIVDKIRRKNCPACRLRKCCQAGMVLGGRKFKKFNKVRVVRALDAVALPQPVGVPNESQALSQRFTFSPGQDIQLIPPLINLLMSIEPDVIYAGHDNTKPDTSSSLLTSLNQLGERQLLSVVKWSKSLPGFRNLHIDDQITLIQYSWMSLMVFGLGWRSYKHVSGQMLYFAPDLILNEQRMKESSFYSLCLTMWQIPQEFVKLQVSQEEFLCMKVLLLLNTIPLEGLRSQTQFEEMRSSYIRELIKAIGLRQKGVVSSSQRFYQLTKLLDNLHDLVKQLHLYCLNTFIQSRALSVEFPEMMSEVIAAQLPKILAGMVKPLLFHKK
notes: Progesterone receptor isoform PR-A, human; N-terminal truncation (missing aa 1-164) of full-length PR-B; no cleavage step is described and the DSF methods call the purified proteins SII-tagged; Carries the steroid R5020 (agonist) or RU486 (antagonist) according to the assay; Monomer without DNA, dimer on PRE DNA by SEC-MALS; The reporter-assay plasmids carry hPGR NM_000926.4 and NM_001202474.3; …
B2: steroid receptor coactivator 3 (SRC3), full-length, Strep II tagged (natural protein)
chain: not shown
notes: full-length open reading frame, codon-optimised for insect cells; NR-boxes at 685-689, 738-742 and 1057-1061; no cleavage step is described; source: Sf9 insect cells (baculovirus), purified (StrepTrap XT, SEC); not shown: Strep II, N-terminal, kept

Columns and labels:
[1] = molecular target: the molecule itself; test: SEC-MALS; R5020-bound PR mixed with 32-mer PRE DNA; Superose 6 Increase; 20 mM Hepes, 50 mM NaCl, 5% glycerol, 1 mM TCEP, with or without 1 M urea, pH 7.5
[2] = molecular target: B2; test: HDX-MS; differential, R5020-bound PR vs PR:SRC3 and SRC3 vs PR:SRC3, with and without PRE DNA (2:1:1 PR:SRC3:PRE), sequential addition; 4 C, 20 mM Hepes, 200 mM NaCl, 1 M urea, 1 mM TCEP, 5% glycerol, pD 7.9; conditions: both partners purified
[3] = molecular target: T1, histone acetyltransferase p300, full-length, Strep II tagged (human, UniProt Q09472 1-2414); test: cross-linking; DSSO XL-MS of R5020-bound PR:SRC3:p300, with and without PRE DNA (PR:SRC3:p300:DNA 2:1:1:1.5); PR 5 uM, 3 mM DSSO, 25 C 45 min; 20 mM Hepes pH 7.5, 200 mM NaCl, 1 M urea, 1 mM TCEP, 5% glycerol; conditions: both partners purified
T1 construct: Histone acetyltransferase p300, human; full-length open reading frame, codon-optimised for insect cells; no cleavage step is described; source: Sf9 insect cells (baculovirus), purified (StrepTrap XT, SEC); not shown: Strep II, N-terminal, kept
T1 sequence (Q09472 whole entry): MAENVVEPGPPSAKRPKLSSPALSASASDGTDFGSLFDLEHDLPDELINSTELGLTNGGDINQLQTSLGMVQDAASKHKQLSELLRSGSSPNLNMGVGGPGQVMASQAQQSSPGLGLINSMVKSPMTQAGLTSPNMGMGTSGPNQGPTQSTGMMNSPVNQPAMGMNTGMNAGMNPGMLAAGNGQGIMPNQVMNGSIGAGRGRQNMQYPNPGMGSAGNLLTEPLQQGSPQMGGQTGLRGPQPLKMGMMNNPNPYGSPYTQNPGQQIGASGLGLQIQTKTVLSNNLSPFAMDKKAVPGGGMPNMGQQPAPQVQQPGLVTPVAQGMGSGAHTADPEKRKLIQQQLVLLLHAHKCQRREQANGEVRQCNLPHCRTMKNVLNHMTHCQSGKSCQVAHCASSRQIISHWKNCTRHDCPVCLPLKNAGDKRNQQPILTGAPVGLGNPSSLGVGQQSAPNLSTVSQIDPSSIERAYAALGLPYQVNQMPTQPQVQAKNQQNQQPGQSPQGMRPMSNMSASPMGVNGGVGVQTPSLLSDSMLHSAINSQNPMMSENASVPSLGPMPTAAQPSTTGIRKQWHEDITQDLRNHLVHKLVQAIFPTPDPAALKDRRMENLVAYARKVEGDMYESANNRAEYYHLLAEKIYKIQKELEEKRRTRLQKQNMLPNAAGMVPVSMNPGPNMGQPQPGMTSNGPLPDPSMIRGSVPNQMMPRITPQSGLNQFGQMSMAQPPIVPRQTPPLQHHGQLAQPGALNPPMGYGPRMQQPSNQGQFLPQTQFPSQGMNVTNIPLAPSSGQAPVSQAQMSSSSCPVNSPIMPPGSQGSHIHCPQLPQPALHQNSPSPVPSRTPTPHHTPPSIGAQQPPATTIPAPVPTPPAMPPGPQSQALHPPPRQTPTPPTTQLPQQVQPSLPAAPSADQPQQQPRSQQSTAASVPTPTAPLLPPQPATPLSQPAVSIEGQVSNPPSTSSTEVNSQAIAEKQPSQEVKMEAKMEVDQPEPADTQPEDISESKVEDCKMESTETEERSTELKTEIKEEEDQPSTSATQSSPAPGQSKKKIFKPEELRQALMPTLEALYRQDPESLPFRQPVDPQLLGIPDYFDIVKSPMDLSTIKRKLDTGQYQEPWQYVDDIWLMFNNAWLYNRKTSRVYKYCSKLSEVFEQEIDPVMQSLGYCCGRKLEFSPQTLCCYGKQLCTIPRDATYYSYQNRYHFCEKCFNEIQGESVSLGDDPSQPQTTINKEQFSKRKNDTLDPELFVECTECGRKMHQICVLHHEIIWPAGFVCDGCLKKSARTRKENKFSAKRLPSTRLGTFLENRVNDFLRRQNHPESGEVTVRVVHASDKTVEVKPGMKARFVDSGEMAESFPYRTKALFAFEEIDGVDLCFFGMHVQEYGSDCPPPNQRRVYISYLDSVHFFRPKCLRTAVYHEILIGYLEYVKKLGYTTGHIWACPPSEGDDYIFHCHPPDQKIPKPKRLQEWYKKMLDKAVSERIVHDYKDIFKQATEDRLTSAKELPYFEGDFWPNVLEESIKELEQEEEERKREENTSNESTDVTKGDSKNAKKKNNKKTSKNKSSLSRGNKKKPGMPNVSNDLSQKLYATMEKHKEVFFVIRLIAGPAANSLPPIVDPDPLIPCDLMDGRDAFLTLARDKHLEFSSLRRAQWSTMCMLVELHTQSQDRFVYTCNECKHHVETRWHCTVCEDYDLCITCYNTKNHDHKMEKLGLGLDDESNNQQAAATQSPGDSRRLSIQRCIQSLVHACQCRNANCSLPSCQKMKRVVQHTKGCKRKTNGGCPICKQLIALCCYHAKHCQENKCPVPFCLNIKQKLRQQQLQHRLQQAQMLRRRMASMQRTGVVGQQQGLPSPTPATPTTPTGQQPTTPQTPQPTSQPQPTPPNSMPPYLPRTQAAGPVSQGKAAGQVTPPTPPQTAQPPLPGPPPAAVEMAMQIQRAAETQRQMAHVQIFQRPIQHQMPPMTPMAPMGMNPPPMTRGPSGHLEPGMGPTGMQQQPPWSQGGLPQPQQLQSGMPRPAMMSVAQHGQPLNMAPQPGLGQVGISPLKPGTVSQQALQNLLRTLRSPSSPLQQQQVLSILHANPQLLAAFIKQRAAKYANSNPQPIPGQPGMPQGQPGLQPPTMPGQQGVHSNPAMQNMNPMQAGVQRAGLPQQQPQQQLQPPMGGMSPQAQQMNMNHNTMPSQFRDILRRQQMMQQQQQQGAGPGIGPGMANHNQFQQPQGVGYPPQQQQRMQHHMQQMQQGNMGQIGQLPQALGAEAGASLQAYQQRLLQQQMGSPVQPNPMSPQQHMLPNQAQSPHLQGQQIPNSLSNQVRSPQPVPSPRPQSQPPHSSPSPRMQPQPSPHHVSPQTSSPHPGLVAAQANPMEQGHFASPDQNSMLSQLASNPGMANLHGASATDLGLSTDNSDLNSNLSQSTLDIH

[4] = molecular target: B1; test: SEC-MALS; R5020-bound PR-A, SRC3 and p300 mixed with PRE DNA; Superose 6 Increase; 20 mM Hepes, 50 mM NaCl, 5% glycerol, 1 mM TCEP, with or without 1 M urea, pH 7.5; conditions: both partners purified
[5] = molecular target: T1, histone acetyltransferase p300, …; test: HDX-MS; differential, R5020-bound PR:SRC3 vs PR:SRC3:p300, with and without PRE DNA, sequential addition (DNA, PR, SRC3, p300); 4 C, 20 mM Hepes, 200 mM NaCl, 1 M urea, 1 mM TCEP, 5% glycerol, pD 7.9; conditions: both partners purified
[6] = molecular target: the molecule itself; test: SEC-MALS; each protein alone, PR bound to agonist R5020, no DNA; Superose 6 Increase; 20 mM Hepes, 50 mM NaCl, 5% glycerol, 1 mM TCEP, with or without 1 M urea, pH 7.5; about 20-100 ug injected
[7] = molecular target: T1, histone acetyltransferase p300, …; test: cross-linking; DSSO XL-MS of two proteins (R5020-bound PR with SRC3, or PR-B with p300 without SRC3), with and without PRE DNA; PR 5 uM, 3 mM DSSO, 25 C 45 min; 20 mM Hepes pH 7.5, 200 mM NaCl, 1 M urea, 1 mM TCEP, 5% glycerol; conditions: both partners purified

| Binder | stoichiometry N [1] | binding result [2] | binding result [3] | stoichiometry N [4] | binding result [5] | stoichiometry N [6] | binding result [7] |
| --- | --- | --- | --- | --- | --- | --- | --- |
| B1 | 2 | binds | binds | – | – | – | – |
| B2 | – | – | – | 0.5 | binds | – | – |
| progesterone receptor isoform B (PR-B), full-length, Strep II tagged (receptor, human, UniProt P06401 1-933, looked up, Progesterone receptor isoform PR-B, human; full-length open reading frame (residues up to 933 are named), codon-optimised for insect cells; no cleavage step is described and the DSF methods call the purified proteins SII-tagged; Carries R5020 or RU486 according to the assay; In the functional row PR-B was expressed from a VectorBuilder plasmid in 293T cells (hRluc:P2A:hPGR), not this Sf9 protein; …) MTELKAKGPRAPHVAGGPPSPEVGSPLLCRPAAGPFPGSQTSDTLPEVSAIPISLDGLLFPRPCQGQDPSDEKTQDQQSLSDVEGAYSRAEATRGAGGSSSSPPEKDSGLLDSVLDTLLAPSGPGQSQPSPPACEVTSSWCLFGPELPEDPPAAPATQRVLSPLMSRSGCKVGDSSGTAAAHKVLPRGLSPARQLLLPASESPHWSGAPVKPSPQAAAVEVEEEDGSESEESAGPLLKGKPRALGGAAAGGGAAAVPPGAAAGGVALVPKEDSRFSAPRVALVEQDAPMAPGRSPLATTVMDFIHVPILPLNHALLAARTRQLLEDESYDGGAGAASAFAPPRSSPCASSTPVAVGDFPDCAYPPDAEPKDDAYPLYSDFQPPALKIKEEEEGAEASARSPRSYLVAGANPAAFPDFPLGPPPPLPPRATPSRPGEAAVTAAPASASVSSASSSGSTLECILYKAEGAPPQQGPFAPPPCKAPGASGCLLPRDGLPSTSASAAAAGAAPALYPALGLNGLPQLGYQAAVLKEGLPQVYPPYLNYLRPDSEASQSPQYSFESLPQKICLICGDEASGCHYGVLTCGSCKVFFKRAMEGQHNYLCAGRNDCIVDKIRRKNCPACRLRKCCQAGMVLGGRKFKKFNKVRVVRALDAVALPQPVGVPNESQALSQRFTFSPGQDIQLIPPLINLLMSIEPDVIYAGHDNTKPDTSSSLLTSLNQLGERQLLSVVKWSKSLPGFRNLHIDDQITLIQYSWMSLMVFGLGWRSYKHVSGQMLYFAPDLILNEQRMKESSFYSLCLTMWQIPQEFVKLQVSQEEFLCMKVLLLLNTIPLEGLRSQTQFEEMRSSYIRELIKAIGLRQKGVVSSSQRFYQLTKLLDNLHDLVKQLHLYCLNTFIQSRALSVEFPEMMSEVIAAQLPKILAGMVKPLLFHKK | – | binds | – | – | – | 2 | binds |
